These results are taken from article PMC11482926 (bioRxiv, 2024).

Assay [1] deals with NEDD8 (UniProt Q15843 1-76). Nature of the assay: NMR titration.
The target in assay [2] is ubiquitin (UniProt P0CG48 1-76). The assay is described as follows: NMR titration.

B1: UBZ domain of Pol η (amino acids 628–662) (domain or fragment)
chain: AAEDQVPCEKCGSLVPVWDMPEHMDYHFALELQKS
On to B1, for which the Kd amounted to 671 ± 153 µM in assay [1] and 159 ± 9.5 µM in assay [2].
